PMC6336196 (Nature, 2018)
Like-named read-outs stand apart in the source and are kept apart here.

B1: Cyphellophora europaea mitochondrial calcium uniporter (natural protein, UniProt W2SDE2 1-346, looked up)
chain: MTKGKLLTTPSRLLKLVLPLSTVDHNTDRKDVAPLALLVHPQQPLSYLERLIQAELPPPDPQDSKSTTRSVTFRAMEAKDDEIKPRKKADTEGGGGSDGSVQSYSGAGREGEGKDEGEFVRWSPSTEIGDFIRDAARAKEFEVEIEGSPGVIKVAVPSFNDRTYYLRQRLRRTSRKISKLAAIKEECDKAAHRGAQRIALAGCGGLIGYWYIVYRLTFETDLGWDVMEPVTYLVGLSTLIGGYMWFLWHNREVSYRSALNITVSARQNKLYQAKGFSLQDWEGYLEEANAMRREIKAVASEYDVDWNETQDEGGDEKVTKALRDERKNNNGTKNKSKEGEEDDEDD
B2: Danio rerio (zebrafish) mitochondrial calcium uniporter (natural protein, zebrafish (Danio rerio), UniProt Q08BI9 35-376, looked up)
chain: QGTKTEALSMSLGGHQTVRRAHGLRTGGRCALFCHPSATLTAQGWKGSPSWQVQRLLCSPAAEDVSVVYQNGLPVISVRLPSRRERCQFTLKPLSDTVGVFLQQLQAEDRGIDRVTIYSADGARIASSTGIDILLMDNFKLVINDTSYLVQPPRRDLLPHEDGERLNDVKILVQQLYTTLRIEEHQLNKERELIGRLEDLNSQLQPLEKVKEELSKKAERRTTWVLWGGMAYMATQFGILARLTWWEYSWDIMEPVTYFITYGTAMAMYAYFVLTRQEYLYPDARDRQYLLFFHRGAKRTRFDIEKYNKLKDAIAEAELDLKRLRDPLQLNLPIQQIDTSKD

Assays:
cryo-EM structure [1] = target: the molecule itself; assay: cryo-EM structure
cryo-EM structure [2] = target: the molecule itself; assay: cryo-EM structure; remark: listed apart in the source

| Protein | stoichiometry N (cryo-EM structure [1]) | stoichiometry N (cryo-EM structure [2]) |
| --- | --- | --- |
| B1 | 4 | – |
| B2 | – | 4 |
